Tests used:
[1] = target: human CSPG5-FLAG_Fc (human); assay: phage ELISA, immobilised antigen, anti-M13-HRP
Experimental: (§1) In the ELISA, human CSPG5-FLAG_Fc and mouse CSPG5-FLAG_Fc were immobilized on MAXISORP (manufactured by NUNC, Inc.), followed by blocking using SuperBlock Blocking Buffer (manufactured by Thermo Fisher Scientific, Inc.). As a negative control, a plate on which Fc was immobilized was also prepared.
(§2) To each well, each phage clone was added and allowed to react at room temperature for 30 minutes, and thereafter, each well was washed with PBS-T. Subsequently, a solution obtained by diluting an anti-M13 antibody (manufactured by GE Healthcare, Inc.) labeled with horseradish peroxidase with PBS-T comprising 10% Block Ace (manufactured by Dainippon Pharmaceutical Co., Ltd.) was added to each well and incubated at room temperature for 30 minutes. After the microplate was washed 3 times with PBS-T, a 3,3′,5,5′-tetramethylbenzidine (TMB) chromogenic substrate solution (manufactured by DAKO, Inc.) was added thereto, followed by incubation at room temperature. The coloring reaction was stopped by adding a 0.5 mol/L sulfuric acid to each well, and an absorbance at a wavelength of 450 nm (reference wavelength: 570 nm) was measured using a microplate reader. […]

[2] = target: mouse CSPG5-FLAG_Fc (mouse); assay: phage ELISA, immobilised antigen, anti-M13-HRP
Experimental: as §1, §2

Binder	binding result [1]	binding result [2]
pCANTAB_CSPG5219 phage clone (scFv, V domains shown, also called CSPG5219 scFv on phage) VH: not shown VL: EIVLTQSPGTLSLSPGERATLSCRASQSVSSSYLAWYQQKPGQAPRLLIYGASSRATGIPDRFSGSGSGTDFTLTISRLEPEDFAVYYCQQLRRKGSTFGQGSKVEIK	binds	binds
pCANTAB_CSPG5168 phage clone (scFv, V domains shown, also called CSPG5168 scFv on phage) VH: EVQLVETGGALVQPGGSLRLSCAGSGFIFSKYEMTWVRQAPGKGLEWVSTIGSLGLKTFYTDSVKGRFTTSRDNSRDTLFLQMDNLRVEDTAIYFCVKGGIRRADYWGKGTLVTVSS VL: EIVMTQSPATLSLSPGERATLSCRASQSVSSYLAWYQQKPGQAPRLLIYDASNRATGIPARFSGSGSGTDFTLTISSLEPEDFAVYYCQQRSNWPLTFGGGTKVEIK	binds	binds
pCANTAB_CSPG5206 phage clone (scFv, V domains shown, also called CSPG5206 scFv on phage) VH: not shown VL: QSALTQPASVSGSPGQSITISCTGTSTDVNGYNYVSWYQQYAGKAPKLIIFDVSKRPSGVSNRFSGSKSGDTASLTISGLQAEDEADYHCSSYNRKRPPVLFGGGTKLTVL	binds	binds
pCANTAB_CSPG5201 phage clone (scFv, V domains shown, also called CSPG5201 scFv on phage) VH: not shown VL: QSALTQPASVSGSPGQSITISCTGTSTDVNGYNYVSWYQQYAGKAPKLIIFDVSKRPSGVSNRFSGSKSGDTASLTISGLQAEDEADYHCSSYRRLRLPVLFGGGTKLTVL	binds	binds
pCANTAB_CSPG5207 phage clone (scFv, V domains shown, also called CSPG5207 scFv on phage) VH: not shown VL: QSALTQPASVSGSPGQSITISCTGTSTDVNGYNYVSWYQQYAGKAPKLIIFDVSKRPSGVSNRFSGSKSGDTASLTISGLQAEDEADYHCSSYTPSRARVLFGGGTKLTVL	binds	binds
pCANTAB_CSPG5234 phage clone (scFv, V domains shown, also called CSPG5234 scFv on phage) VH: not shown VL: QSALTQPASVSGSPGQSITISCTGTSTDVNGYNYVSWYQQYAGKAPKLIIFDVSKRPSGVSNRFSGSKSGDTASLTISGLQAEDEADYHCSSYRPKARSVLFGGGTKLTVL	binds	binds
pCANTAB_CSPG5214 phage clone (scFv, V domains shown, also called CSPG5214 scFv on phage) VH: not shown VL: QSALTQPASVSGSPGQSITISCTGTSTDVNGYNYVSWYQQYAGKAPKLIIFDVSKRPSGVSNRFSGSKSGDTASLTISGLQAEDEADYHCSSYNPHHSGVLFGGGTKLTVL	binds	binds
pCANTAB_CSPG5230 phage clone (scFv, V domains shown, also called CSPG5230 scFv on phage) VH: not shown VL: QSALTQPASVSGSPGQSITISCTGTSTDVNGYNYVSWYQQYAGKAPKLIIFDVSKRPSGVSNRFSGSKSGDTASLTISGLQAEDEADYHCSSYHTRPATVLFGGGTKLTVL	binds	binds
pCANTAB_CSPG5120 phage clone (scFv, V domains shown, also called CSPG5120 scFv on phage) VH: EVQLVQSGGGLVQPGGSLRLSCAASGFTFSNYWMTWVRQAPGEGPEWVANINQDGSQKYYVDSVKGRFTISRDNAKNSLNLQMNNLRAEDTALYYCAKSNAMDVWGQGTLVTVSS VL: DIVMTQSPLSLPVTPGEPASISCRSSESLLHSNGYNYLNWYLQKPGQSPQLLIYLGSHRASGVPDRLSGSGSDTDFTLKISRVEAEDVGIYYCMQGRQTPITFGGGTKLEIK	binds	binds
pCANTAB_CSPG5115 phage clone (scFv, V domains shown, also called CSPG5115 scFv on phage) VH: EVQLVQSGAEVKKPGASLKVSCKASGYSFTDYIIHWVRQAPGQSLEWMGWINGGSGVPKYSDKFQGRVTITRDTSANTAYMEIRSLGSEDTAVYYCARGGVCSGDKCYYYGMDVWGQGTTVTVSS VL: QSVLTQPPSVSVSPGQTASITCSGDKLGDKYSWWYQQKPGQSPLLVIHQDNKRPSGIPERFSGSNSGNTATLTIVGTQAMDEADYYCQAWDRGVVFGGGTKLTVL	binds	binds

From patent publication US20210269548A1 (Kyowa Kirin, published 2021)
